The source of these data is patent publication US20240294646A1.

Test [1] deals with FcγRIIb soluble extracellular domain with C-terminal 10xHis tag (UniProt P31994). Briefly: SPR; IIb-Fold/IIaR-Fold (FcγRIIb against FcγRIIaR).
Test [2] shares this target. As to the kind of experiment: SPR, OAA captured on HER2, receptor in solution; KD(WT v16463)/KD(variant).
For test [3], the target named is FcγRIIaR soluble extracellular domain with C-terminal 10xHis tag (UniProt P12318). Described as above.
Test [4] deals with FcγRIIb soluble extracellular domain with C-terminal 10xHis tag (UniProt P31994). As to the kind of experiment: SPR; IIb selectivity of variant / that of control v27294.
Test [5] shares this target. Briefly: SPR, OAA captured on HER2, receptor in solution; KD(control v27294)/KD(variant). Background: SPR reads the build-up and loss of mass on a sensor chip optically.
For test [6], the target named is FcγRIIb (UniProt P31994). As to the kind of experiment: SPR; ratio of IIb-Fold to IIaR-Fold (FcγRIIb against FcγRIIaR).
Target sequence in this assay (P31994 43-217): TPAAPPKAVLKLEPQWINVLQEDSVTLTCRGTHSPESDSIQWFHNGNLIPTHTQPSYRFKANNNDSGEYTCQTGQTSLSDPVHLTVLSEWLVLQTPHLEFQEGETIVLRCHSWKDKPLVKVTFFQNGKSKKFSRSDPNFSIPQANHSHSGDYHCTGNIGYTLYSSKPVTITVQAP
A further test has as its target C1q (human) (UniProt P02745). As to the kind of experiment: ELISA; antibody coated on the plate, human C1q added; signal as % of wild-type.
Test [7] deals with FcγRIIaR (UniProt P12318). As to the kind of experiment: SPR; antibody captured on immobilised HER2, soluble FcγR as analyte; fold over wild-type.
Target sequence in this assay (P12318 34-217): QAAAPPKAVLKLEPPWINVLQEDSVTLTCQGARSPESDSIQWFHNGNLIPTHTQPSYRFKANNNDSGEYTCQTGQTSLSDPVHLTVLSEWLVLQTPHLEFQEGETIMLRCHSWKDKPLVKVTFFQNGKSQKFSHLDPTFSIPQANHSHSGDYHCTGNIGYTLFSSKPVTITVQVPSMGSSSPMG
In test [8] the target is FcγRIIb (UniProt P31994). The test is described as above.
Target sequence in this assay (P31994 43-217): as the sequence (P31994 43-217) above
Test [9] has as its target Soluble FcγRIIb extracellular domain with C-terminal 10xHis tag (UniProt P31994). Briefly: SPR, antibody captured on immobilised HER2, soluble receptor as analyte.
The target of test [10] is Soluble FcγRIIaR extracellular domain with C-terminal 10xHis tag (UniProt P12318). The test is described as above.
Soluble FcγRIIaR extracellular domain with C-terminal 10xHis tag, sequence (P12318 other isoform, or with tags, fused parts or gaps): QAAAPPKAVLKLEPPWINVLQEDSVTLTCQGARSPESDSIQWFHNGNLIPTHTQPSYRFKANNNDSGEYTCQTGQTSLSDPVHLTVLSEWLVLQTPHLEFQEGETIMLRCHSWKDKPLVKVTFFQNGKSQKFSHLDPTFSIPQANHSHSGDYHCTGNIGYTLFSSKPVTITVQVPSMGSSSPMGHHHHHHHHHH
The target of test [11] is Soluble FcγRIIb extracellular domain with C-terminal 10xHis tag (UniProt P31994). Briefly: SPR (Biacore 4000); variant captured on HER2, receptor in solution.
Soluble FcγRIIb extracellular domain with C-terminal 10xHis tag, sequence (P31994 other isoform, or with tags, fused parts or gaps): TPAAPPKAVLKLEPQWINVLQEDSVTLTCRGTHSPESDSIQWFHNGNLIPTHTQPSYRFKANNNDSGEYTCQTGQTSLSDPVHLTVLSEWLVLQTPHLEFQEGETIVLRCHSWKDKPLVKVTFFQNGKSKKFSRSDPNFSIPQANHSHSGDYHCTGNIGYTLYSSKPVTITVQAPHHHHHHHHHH
In test [12] the target is Soluble FcγRIIaR extracellular domain with C-terminal 10xHis tag (UniProt P12318). The description is as above.
The target in test [13] is FcγRIIaR (UniProt P12318). As to the kind of experiment: SPR (ProteOn XPR36), antibody captured on immobilized HER2, FcγR as analyte, equilibrium fit.
Target sequence in this assay (P12318 34-217): as the sequence (P12318 34-217) above
The next test has as its target FcγRI (UniProt P12314). Described as above.
A further test deals with FcγRIIIaV (UniProt P08637). The description is as above.
FcγRIIIaV, sequence (P08637 17-208): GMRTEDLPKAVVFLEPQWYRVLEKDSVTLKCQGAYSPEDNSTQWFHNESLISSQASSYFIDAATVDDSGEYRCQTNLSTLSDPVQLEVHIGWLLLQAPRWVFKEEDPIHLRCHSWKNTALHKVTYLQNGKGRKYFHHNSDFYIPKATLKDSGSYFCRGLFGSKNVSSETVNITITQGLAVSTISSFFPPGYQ
The target in test [14] is FcγRIIb (UniProt P31994). The test is described as above.
Target sequence in this assay (P31994 43-217 limits assumed): as the sequence (P31994 43-217) above
Test [15] has as its target Soluble FcγRIIb extracellular domain with C-terminal 10×His tag (UniProt P31994). Briefly: SPR, antibody captured on HER2 chip, receptor as analyte.
For test [16], the target named is FcγRIIaR (UniProt P12318). Briefly: SPR imaging (IBIS MX96), antibody spotted on chip, soluble receptor as analyte, kinetic fit, 25 C, pH 7.4.
Target sequence in this assay (P12318 34-217 H167R limits assumed): as the sequence (P12318 34-217) above, with H134R counted along it
For test [17], the target named is FcγRIIb (UniProt P31994). The description is as above.
Target sequence in this assay (P31994 43-217): as the sequence (P31994 43-217) above
For test [18], the target named is Soluble FcγRIIb extracellular domain with C-terminal 10xHis tag (UniProt P31994). As to the kind of experiment: SPR; fold change in affinity over WT v16463.
Test [19] concerns the target Soluble FcγRIIaR extracellular domain with C-terminal 10xHis tag (UniProt P12318). As to the kind of experiment: SPR; fold change in affinity over WT v16463.
In test [20] the target is Soluble FcγRIIb extracellular domain with C-terminal 10xHis tag (UniProt P31994). Briefly: SPR; IIb-Fold / IIaR-Fold.
The target in test [21] is FcγRIIaR (UniProt P12318). As to the kind of experiment: SPR (Protocol 1), one-armed antibody captured on HER2, receptor as analyte; ratio to wild-type.
Target sequence in this assay (P12318 34-217): as the sequence (P12318 34-217) above
Test [22] addresses FcγRIIb (UniProt P31994). The description is as above.
Target sequence in this assay (P31994 43-217 limits assumed): as the sequence (P31994 43-217) above
Test [23] has as its target FcγRIIaR (UniProt P12318). Briefly: SPR (Protocol 1), one-armed antibody captured on HER2, receptor as analyte; fold over wild-type.
Target sequence in this assay (P12318 34-217): as the sequence (P12318 34-217) above
Test [24] has as its target FcγRIIb (UniProt P31994). The description is as above.
Target sequence in this assay (P31994 43-217 limits assumed): as the sequence (P31994 43-217) above
Test [25] deals with FcγRIIb (UniProt P31994). As to the kind of experiment: SPR (Protocol 1); IIb-Fold over IIaR-Fold.
Target sequence in this assay (P31994 43-217 limits assumed): as the sequence (P31994 43-217) above
For test [26], the target named is FcγRIIb (UniProt P31994). As to the kind of experiment: SPR (Protocol 1); FcγRIIb ratio over FcγRIIaR ratio.
Target sequence in this assay (P31994 43-217 limits assumed): as the sequence (P31994 43-217) above

The Kd is the equilibrium constant for the complex coming apart. Low readings indicate higher affinity, high ones lower affinity.

FcγRIIb soluble extracellular domain with C-terminal 10xHis tag, sequence (P31994 other isoform, or with tags, fused parts or gaps limits assumed): as the sequence (P31994 other isoform, or with tags, fused parts or gaps) above
C1q (human), sequence (P02745 23-245 limits assumed, chain 1 of 3): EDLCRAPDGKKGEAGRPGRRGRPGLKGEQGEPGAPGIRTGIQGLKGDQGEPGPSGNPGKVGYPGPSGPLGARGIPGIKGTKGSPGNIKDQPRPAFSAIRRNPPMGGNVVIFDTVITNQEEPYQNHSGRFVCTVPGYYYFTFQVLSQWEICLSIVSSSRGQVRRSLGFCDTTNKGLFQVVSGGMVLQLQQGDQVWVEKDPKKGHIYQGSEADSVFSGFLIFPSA
C1q (human), sequence (P02746 28-253 limits assumed, chain 2 of 3, further chain): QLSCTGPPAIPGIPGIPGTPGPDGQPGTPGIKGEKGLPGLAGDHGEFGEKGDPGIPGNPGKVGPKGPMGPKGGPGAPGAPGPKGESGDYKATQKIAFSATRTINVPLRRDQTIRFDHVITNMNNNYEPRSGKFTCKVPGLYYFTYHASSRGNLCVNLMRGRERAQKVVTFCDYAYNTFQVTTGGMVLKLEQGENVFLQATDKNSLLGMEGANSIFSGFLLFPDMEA
C1q (human), sequence (P02747 29-245 limits assumed, chain 3 of 3, further chain): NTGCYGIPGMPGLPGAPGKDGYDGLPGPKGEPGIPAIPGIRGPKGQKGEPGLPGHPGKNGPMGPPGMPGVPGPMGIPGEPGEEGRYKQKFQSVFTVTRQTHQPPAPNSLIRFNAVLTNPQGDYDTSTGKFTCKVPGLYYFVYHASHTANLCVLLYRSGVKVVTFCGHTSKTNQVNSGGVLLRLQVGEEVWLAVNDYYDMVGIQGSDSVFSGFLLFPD
FcγRIIaR soluble extracellular domain with C-terminal 10xHis tag, sequence (P12318 other isoform, or with tags, fused parts or gaps): as the sequence (P12318 other isoform, or with tags, fused parts or gaps) above
Soluble FcγRIIb extracellular domain with C-terminal 10×His tag, sequence (P31994 other isoform, or with tags, fused parts or gaps): as the sequence (P31994 other isoform, or with tags, fused parts or gaps) above
FcγRI, sequence (P12314 16-292 limits assumed): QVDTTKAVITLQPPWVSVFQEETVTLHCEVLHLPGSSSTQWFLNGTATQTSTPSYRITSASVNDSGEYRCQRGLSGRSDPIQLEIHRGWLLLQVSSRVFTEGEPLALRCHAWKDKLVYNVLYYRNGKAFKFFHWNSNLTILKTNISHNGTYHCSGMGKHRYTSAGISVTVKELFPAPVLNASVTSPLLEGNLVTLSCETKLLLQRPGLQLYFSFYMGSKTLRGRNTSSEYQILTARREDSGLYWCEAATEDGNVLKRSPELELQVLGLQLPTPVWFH

For “Variant 26940 (A_L234F_G236N_H268Q_A327G_A330K_P331S / B_G236D_G237D_S239D_V266L_S267A_H268D) (antibody)”, in test [1], the IIb Selectivity turned out to be 23.3 fold. In [2], the IIb-Fold amounted to 304 fold. In test [3], this substance came in with an IIaR-fold of 13.1 fold. This substance registered an IIb Selectivity Improvement wrt Control in test [4] of 1.7 fold. This substance also came in with an IIb-Fold wrt Control in test [5] of 3.3 fold.
Turning to “Variant 22127 (trastuzumab FSA; A: L234D_G236N_S267A; B: G236D_S239D_V266L_S267A_H268D) (antibody)”, in the test with FcγRIIb [6], the IIb Selectivity (IIb-Fold/IIaR-Fold) was 12 fold. In addition, in the test with C1q (human), the C1q Binding (% WT) was 215 % WT. The substance further returned an IIaR-fold (fold change in affinity over wild-type) with FcγRIIaR [7] of 4 fold. Also, the IIb-fold (fold change in affinity over wild-type) with FcγRIIb [8] stood at 49 fold.
As to “Variant 27294, Launching Module 2 (A_L234F_G236N_H268Q_A327G_A330K_P331S / B_G236D_S239D_V266L_S267A_H268D), one-armed trastuzumab antibody”, the values for the Kd in test [9] and in test [10] were 16 nM and 44 nM, respectively.
In the case of “v26132 (A_N236L_strat1), one-armed trastuzumab antibody”, the results for the Kd in test [11] and in test [12] were 2.7 nM and 7.3 nM, respectively.
For the substance “Variant 31521 (trastuzumab full-size antibody, knobs-into-holes heterodimeric IgG1 Fc, no CH2 mutations; parental scaffold)”, the Kd with FcγRIIaR [13] is 2590 nM; in the test with FcγRI it was 0.098 nM; with FcγRIIIaV, 1890 nM; with FcγRIIb [14] it was 7740 nM.
As to “Variant 27362, strat3_control (A_G236N_G237A / B_G236D_G237F_S239D_S267V_H268D), one-armed trastuzumab antibody”, the Kd in test [15] came to 150 nM.
In the case of “Variant 21653 (WT), anti-HER2 (trastuzumab) full-size antibody”, the figures for the Kd with FcγRIIaR [16] and with FcγRIIb [17] were 630 nM and 2000 nM, respectively.
Consider “Variant 31190 (trastuzumab FSA; A: L234F_L235D_G236N_H268Q_A327G_A330K_P331S; B: G236D_G237L_S239D_V266L_S267A_H268D) (antibody)”, for which the IIb Selectivity (IIb-Fold/IIaR-Fold) with FcγRIIb [6] came out at 26 fold. In addition, the C1q Binding (% WT) with C1q (human) was 2 % WT. The substance also gave an IIaR-fold (fold change in affinity over wild-type) with FcγRIIaR [7] of 7 fold. The substance further registered an IIb-fold (fold change in affinity over wild-type) with FcγRIIb [8] of 187 fold.
For “v26128 (A_L235P_strat1), one-armed trastuzumab antibody”, the values for the Kd in test [11] and in test [12] were 6.5 nM and 18 nM, respectively.
Take “Variant 22128 (trastuzumab FSA; A: L234F_G236N_H268Q_K274Q_A327G_A330K_P331S; B: L234F_G236D_S239D_V266L_S267A_H268D_K274Q_A327G_A330S_P331S) (antibody)”: in the test with FcγRIIb [6], the IIb Selectivity (IIb-Fold/IIaR-Fold) stood at 9 fold. In the test with C1q (human), this substance had a C1q Binding (% WT) of 3 % WT. Besides, in the test with FcγRIIaR [7], the IIaR-fold (fold change in affinity over wild-type) turned out to be 4 fold. Also, in the test with FcγRIIb [8], the IIb-fold (fold change in affinity over wild-type) was 33 fold.
Regarding “v26129 (A_N236G_strat1), one-armed trastuzumab antibody”, the Kd stood at 4.6 nM in test [11] and 8.9 nM in test [12].
The matching figures for “v26130 (A_N236A_strat1), one-armed trastuzumab antibody”: 4 nM and 12 nM.
Consider “Variant 31256 (trastuzumab FSA; A: L234F_G236N_H268Q_A327G_P329I_A330K_P331S; B: G236D_G237D_S239D_V266L_S267A_H268D) (antibody)”, for which, in the test with FcγRIIb [6], the IIb Selectivity (IIb-Fold/IIaR-Fold) is 34 fold. This substance also yielded a C1q Binding (% WT) in the test with C1q (human) of 3 % WT. The substance further displayed an IIaR-fold (fold change in affinity over wild-type) with FcγRIIaR [7] of 4 fold. This substance returned an IIb-fold (fold change in affinity over wild-type) with FcγRIIb [8] of 121 fold.
In test [1], “Variant 26931 (A_L234F_G236N_H268Q_A327G_A330K_P331S / B_G236D_G237L_S239D_V266L_S267A_H268D) (antibody)” returned an IIb Selectivity of 20.9 fold. Also, in test [2], the IIb-Fold amounted to 296 fold. The substance further came in with an IIaR-fold in test [3] of 14.2 fold. Further, in [4], the IIb Selectivity Improvement wrt Control worked out at 1.6 fold. Moreover, the IIb-Fold wrt Control in test [5] amounted to 3.2 fold.
In turn, “v12 (IIb-specific comparator, symmetrical E233D_G237D_P238D_H268D_P271G_A330R), anti-CD40 (Chi Lob 7/4) full-size antibody” returned a Kd with FcγRIIaR [16] of 390 nM.
In test [18], “Variant 16463, wild-type one-armed trastuzumab antibody (Scaffold 2)” gave an IIb-Fold of 1 fold. Further, the IIaR-fold in [19] stood at 1 fold. The substance further registered an IIb Selectivity in [20] of 1. The Kd in test [9] amounted to 1400 nM; in test [10], 310 nM.
In test [1], “Variant 26939 (A_L234F_G236N_H268Q_A327G_A330K_P331S / B_G236D_G237N_S239D_V266L_S267A_H268D) (antibody)” displayed an IIb Selectivity of 19.7 fold. This substance showed an IIb-Fold in test [2] of 542 fold. In test [3], this substance yielded an IIaR-fold of 27.5 fold. Further, the IIb Selectivity Improvement wrt Control in test [4] was determined as 1.5 fold. The IIb-Fold wrt Control in test [5] is 5.8 fold.
For “variant 16533, one-armed trastuzumab antibody (Scaffold 2), S267I in both chains”, the Ka,mut/Ka,WT in the test with FcγRIIaR [21] was determined as 0.98; with FcγRIIb [22] it was 2.69. The IIaR-Fold (fold affinity over wild-type) with FcγRIIaR [23] was found to be 0.98 fold. The substance also displayed an IIb-Fold (fold affinity over wild-type) with FcγRIIb [24] of 2.69 fold. The same substance yielded an IIb/IIaR Selectivity with FcγRIIb [25] of 2.75. Further, the Selectivity IIb/IIaR with FcγRIIb [26] came out at 2.8.
As to “Variant 26847 (A_L234F_G236N_H268Q_A327G_A330T_P331S / B_G236D_S239D_V266L_S267A_H268D) (antibody)”, the IIb Selectivity in test [1] came to 22.6 fold. Besides, the IIb-Fold in [2] was 53.3 fold. Also, the IIaR-fold in test [3] was found to be 2.4 fold. The same substance returned an IIb Selectivity Improvement wrt Control in test [4] of 1.7 fold. The substance further showed an IIb-Fold wrt Control in [5] of 0.6 fold.
As to “Variant 26663 (A_L234F_G236N_S267A_H268Q_A327G_A330K_P331S / B_G236D_S239D_V266L_S267A_H268D) (antibody)”, the IIb Selectivity in test [1] stood at 23.6 fold. The IIb-Fold in test [2] is 62.1 fold. For the same substance, the IIaR-fold in test [3] came to 2.6 fold. Also, the IIb Selectivity Improvement wrt Control in test [4] is 1.8 fold. In test [5], this substance came in with an IIb-Fold wrt Control of 0.7 fold.
Turning to “Variant 26593 (A_L234F_L235D_G236N_H268Q_A327G_A330K_P331S / B_G236D_S239D_V266L_S267A_H268D) (antibody)”, in [1], the IIb Selectivity came out at 26.3 fold. The substance also yielded an IIb-Fold in test [2] of 65.2 fold. The IIaR-fold in test [3] came to 2.5 fold. This substance returned an IIb-Fold wrt Control in [5] of 0.7 fold.
On to “v26131 (A_N236V_strat1), one-armed trastuzumab antibody”, for which the Kd in test [11] came out at 3 nM; in test [12], 8 nM.
In the case of “Variant 21653 (WT), anti-CD19 (4G7) full-size antibody”, the figures for the Kd with FcγRIIaR [16] and in the test with FcγRIIb [17] were 720 nM and 2200 nM, respectively.
Regarding “Variant 21653 (WT), anti-CD40 (Chi Lob 7/4) full-size antibody”, the Kd with FcγRIIaR [16] came out at 560 nM; with FcγRIIb [17] it was 2100 nM.
